Assay in all cases: Kinase Profiling Assay
Common to all, as to assay type: biochemical
Common to all, as to details: 100 μM

Experiment [1] has as its target T1, SAPK4(h) (Homo sapiens, UniProt O15264).
T1 sequence (O15264 1-365): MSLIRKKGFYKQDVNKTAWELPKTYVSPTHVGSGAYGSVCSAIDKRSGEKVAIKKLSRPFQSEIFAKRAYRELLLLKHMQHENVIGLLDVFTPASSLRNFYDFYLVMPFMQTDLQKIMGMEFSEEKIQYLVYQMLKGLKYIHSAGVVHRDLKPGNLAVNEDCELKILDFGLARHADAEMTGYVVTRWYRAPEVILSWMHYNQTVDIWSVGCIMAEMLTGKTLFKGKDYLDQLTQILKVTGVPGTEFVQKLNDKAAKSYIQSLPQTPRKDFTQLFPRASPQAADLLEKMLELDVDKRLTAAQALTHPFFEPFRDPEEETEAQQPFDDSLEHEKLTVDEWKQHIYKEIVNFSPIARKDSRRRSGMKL

Experiment [2] has as its target Lyn(h) (Homo sapiens, UniProt P07948).
The target of experiment [3] is T2, SGK2(h) (Homo sapiens, UniProt Q9HBY8).
T2 sequence (Q9HBY8 1-367): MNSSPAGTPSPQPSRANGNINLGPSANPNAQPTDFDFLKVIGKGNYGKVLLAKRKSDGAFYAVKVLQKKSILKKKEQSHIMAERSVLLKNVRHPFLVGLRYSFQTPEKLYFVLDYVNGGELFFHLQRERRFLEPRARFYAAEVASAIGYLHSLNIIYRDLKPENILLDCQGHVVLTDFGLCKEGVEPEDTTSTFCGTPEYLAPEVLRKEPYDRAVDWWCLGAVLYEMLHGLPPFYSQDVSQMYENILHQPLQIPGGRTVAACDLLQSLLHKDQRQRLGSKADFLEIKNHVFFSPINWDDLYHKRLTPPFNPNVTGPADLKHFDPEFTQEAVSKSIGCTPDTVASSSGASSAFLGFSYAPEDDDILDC

Experiment [4] deals with EphA5(h) (Homo sapiens, UniProt P54756).
Experiment [5] deals with T3, PDK1(h) (Homo sapiens, UniProt O15530).
T3 sequence (O15530 1-556): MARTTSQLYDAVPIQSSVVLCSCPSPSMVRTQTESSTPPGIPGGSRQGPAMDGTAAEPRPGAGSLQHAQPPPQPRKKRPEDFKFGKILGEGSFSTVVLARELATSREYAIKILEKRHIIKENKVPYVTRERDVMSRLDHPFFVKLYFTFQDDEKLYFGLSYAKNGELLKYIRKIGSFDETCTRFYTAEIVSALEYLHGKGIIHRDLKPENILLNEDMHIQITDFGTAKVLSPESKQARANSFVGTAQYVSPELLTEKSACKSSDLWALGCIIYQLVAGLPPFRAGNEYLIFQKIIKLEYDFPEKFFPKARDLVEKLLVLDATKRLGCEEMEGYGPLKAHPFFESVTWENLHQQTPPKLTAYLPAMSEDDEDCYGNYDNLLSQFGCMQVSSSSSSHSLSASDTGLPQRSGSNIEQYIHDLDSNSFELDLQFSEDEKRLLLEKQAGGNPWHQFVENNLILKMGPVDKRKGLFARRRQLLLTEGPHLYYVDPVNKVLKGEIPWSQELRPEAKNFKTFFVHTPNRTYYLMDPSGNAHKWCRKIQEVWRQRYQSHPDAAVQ

Experiment [6] concerns the target Tie2(Y897S)(h) (Homo sapiens, UniProt Q02763, Y897S).
The target in experiment [7] is T4, TAO2(h) (Homo sapiens, UniProt Q9UL54).
T4 sequence (Q9UL54 1-1235): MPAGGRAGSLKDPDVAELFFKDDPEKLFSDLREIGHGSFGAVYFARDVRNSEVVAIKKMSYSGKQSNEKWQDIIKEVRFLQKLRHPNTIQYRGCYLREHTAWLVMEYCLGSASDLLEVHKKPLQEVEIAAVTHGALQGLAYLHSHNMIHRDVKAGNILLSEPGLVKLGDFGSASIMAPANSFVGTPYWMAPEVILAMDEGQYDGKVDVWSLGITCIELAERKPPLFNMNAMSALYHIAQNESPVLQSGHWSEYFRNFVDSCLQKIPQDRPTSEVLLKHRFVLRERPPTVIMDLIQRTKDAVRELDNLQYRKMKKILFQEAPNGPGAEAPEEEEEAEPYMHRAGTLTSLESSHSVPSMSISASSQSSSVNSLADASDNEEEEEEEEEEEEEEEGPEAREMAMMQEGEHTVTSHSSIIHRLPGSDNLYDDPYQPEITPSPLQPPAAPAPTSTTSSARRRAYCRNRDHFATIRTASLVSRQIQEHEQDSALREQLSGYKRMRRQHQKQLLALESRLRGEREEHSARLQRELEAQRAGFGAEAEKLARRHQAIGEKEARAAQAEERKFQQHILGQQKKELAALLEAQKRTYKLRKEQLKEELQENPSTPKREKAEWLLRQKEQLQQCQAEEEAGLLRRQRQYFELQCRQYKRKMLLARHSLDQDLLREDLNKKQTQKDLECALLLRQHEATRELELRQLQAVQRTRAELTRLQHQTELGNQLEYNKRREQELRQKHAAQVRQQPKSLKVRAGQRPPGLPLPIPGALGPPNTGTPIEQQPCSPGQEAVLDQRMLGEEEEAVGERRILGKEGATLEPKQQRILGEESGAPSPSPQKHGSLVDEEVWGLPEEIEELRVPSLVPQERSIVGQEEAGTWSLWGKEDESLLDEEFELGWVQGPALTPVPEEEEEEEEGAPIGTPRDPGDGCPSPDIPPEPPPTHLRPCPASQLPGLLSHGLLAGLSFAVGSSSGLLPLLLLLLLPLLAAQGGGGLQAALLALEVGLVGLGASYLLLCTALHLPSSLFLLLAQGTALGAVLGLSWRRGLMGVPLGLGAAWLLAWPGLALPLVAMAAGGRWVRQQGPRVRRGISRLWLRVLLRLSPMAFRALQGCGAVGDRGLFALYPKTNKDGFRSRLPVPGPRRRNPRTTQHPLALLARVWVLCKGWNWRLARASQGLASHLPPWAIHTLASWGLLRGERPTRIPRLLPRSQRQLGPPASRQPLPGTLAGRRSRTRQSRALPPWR

Experiment [8] concerns the target SAPK2b(h) (Homo sapiens, UniProt Q15759).
In experiment [9] the target is FGFR1(V561M)(h) (Homo sapiens, UniProt P11362, V561M).
Chain of FGFR1(V561M)(h) (P11362 22-822 V561M): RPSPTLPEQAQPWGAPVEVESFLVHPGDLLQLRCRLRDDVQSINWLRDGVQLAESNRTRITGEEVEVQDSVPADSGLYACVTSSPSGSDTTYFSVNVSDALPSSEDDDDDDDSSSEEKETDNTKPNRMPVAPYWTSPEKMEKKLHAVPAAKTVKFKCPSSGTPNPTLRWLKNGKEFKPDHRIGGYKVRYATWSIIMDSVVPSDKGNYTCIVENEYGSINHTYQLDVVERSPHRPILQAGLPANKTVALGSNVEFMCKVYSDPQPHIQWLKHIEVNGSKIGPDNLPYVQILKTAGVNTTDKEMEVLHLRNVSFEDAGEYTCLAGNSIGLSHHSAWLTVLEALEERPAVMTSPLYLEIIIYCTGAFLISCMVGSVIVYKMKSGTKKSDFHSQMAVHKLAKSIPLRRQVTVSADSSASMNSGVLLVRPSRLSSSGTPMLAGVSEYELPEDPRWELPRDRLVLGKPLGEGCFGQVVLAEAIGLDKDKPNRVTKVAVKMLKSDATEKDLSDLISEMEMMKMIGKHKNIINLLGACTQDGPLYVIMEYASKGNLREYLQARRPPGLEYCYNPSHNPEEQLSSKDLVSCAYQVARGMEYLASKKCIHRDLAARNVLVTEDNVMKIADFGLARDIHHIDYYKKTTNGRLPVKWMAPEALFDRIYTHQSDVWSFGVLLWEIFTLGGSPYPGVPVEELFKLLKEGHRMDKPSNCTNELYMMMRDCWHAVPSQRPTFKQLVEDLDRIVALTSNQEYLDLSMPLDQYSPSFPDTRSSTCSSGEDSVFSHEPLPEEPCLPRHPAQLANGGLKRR

Chain of Lyn(h) (P07948 whole entry): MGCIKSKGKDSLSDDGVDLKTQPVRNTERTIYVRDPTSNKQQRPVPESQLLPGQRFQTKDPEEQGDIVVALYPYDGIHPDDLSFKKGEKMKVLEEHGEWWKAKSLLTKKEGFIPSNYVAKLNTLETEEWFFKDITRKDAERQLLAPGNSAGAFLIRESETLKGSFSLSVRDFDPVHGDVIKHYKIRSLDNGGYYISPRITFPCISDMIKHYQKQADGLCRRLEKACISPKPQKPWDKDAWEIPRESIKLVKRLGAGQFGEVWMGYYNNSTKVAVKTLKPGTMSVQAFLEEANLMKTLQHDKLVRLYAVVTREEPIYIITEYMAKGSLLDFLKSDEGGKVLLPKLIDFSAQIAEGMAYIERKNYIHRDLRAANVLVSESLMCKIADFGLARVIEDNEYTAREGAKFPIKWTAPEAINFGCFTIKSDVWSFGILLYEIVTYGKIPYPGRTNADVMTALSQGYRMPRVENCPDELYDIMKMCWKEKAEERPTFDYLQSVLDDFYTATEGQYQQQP
Chain of SAPK2b(h) (Q15759 whole entry): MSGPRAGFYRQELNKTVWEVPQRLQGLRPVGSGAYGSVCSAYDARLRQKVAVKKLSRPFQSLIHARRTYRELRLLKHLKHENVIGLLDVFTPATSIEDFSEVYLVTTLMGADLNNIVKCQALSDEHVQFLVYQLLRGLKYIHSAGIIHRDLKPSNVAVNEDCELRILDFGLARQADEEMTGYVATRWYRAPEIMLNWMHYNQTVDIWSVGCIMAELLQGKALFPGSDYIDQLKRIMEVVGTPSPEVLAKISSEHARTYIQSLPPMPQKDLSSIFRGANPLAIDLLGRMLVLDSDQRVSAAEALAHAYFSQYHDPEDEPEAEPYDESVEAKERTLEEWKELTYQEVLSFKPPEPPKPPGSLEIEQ
Chain of EphA5(h) (P54756 25-1037): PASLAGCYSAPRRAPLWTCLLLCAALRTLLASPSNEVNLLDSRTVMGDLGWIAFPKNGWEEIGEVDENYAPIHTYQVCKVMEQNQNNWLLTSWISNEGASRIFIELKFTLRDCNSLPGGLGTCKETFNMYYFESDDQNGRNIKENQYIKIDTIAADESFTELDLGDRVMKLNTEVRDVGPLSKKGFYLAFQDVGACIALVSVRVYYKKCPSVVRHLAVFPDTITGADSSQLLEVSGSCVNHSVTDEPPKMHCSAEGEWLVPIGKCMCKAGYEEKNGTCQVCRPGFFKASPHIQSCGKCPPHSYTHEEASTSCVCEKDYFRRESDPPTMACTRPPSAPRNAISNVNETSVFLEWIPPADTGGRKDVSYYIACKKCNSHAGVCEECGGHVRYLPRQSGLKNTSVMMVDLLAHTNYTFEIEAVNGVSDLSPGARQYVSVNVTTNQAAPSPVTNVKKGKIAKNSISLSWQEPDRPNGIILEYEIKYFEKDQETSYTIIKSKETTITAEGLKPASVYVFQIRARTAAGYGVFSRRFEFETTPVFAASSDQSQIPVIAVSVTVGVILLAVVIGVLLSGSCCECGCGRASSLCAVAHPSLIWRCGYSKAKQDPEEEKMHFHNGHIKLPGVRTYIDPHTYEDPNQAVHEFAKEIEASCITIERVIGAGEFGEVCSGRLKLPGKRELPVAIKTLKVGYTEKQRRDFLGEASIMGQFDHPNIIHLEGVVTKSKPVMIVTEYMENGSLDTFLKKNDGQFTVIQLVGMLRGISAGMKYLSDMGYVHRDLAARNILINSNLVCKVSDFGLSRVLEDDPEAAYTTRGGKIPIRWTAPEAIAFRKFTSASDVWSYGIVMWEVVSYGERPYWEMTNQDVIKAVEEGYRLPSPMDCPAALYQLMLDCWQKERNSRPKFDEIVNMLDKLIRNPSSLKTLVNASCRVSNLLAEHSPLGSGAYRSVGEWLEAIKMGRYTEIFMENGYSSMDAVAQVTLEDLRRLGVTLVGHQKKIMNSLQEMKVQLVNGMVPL
Chain of Tie2(Y897S)(h) (Q02763 23-1124 Y897S): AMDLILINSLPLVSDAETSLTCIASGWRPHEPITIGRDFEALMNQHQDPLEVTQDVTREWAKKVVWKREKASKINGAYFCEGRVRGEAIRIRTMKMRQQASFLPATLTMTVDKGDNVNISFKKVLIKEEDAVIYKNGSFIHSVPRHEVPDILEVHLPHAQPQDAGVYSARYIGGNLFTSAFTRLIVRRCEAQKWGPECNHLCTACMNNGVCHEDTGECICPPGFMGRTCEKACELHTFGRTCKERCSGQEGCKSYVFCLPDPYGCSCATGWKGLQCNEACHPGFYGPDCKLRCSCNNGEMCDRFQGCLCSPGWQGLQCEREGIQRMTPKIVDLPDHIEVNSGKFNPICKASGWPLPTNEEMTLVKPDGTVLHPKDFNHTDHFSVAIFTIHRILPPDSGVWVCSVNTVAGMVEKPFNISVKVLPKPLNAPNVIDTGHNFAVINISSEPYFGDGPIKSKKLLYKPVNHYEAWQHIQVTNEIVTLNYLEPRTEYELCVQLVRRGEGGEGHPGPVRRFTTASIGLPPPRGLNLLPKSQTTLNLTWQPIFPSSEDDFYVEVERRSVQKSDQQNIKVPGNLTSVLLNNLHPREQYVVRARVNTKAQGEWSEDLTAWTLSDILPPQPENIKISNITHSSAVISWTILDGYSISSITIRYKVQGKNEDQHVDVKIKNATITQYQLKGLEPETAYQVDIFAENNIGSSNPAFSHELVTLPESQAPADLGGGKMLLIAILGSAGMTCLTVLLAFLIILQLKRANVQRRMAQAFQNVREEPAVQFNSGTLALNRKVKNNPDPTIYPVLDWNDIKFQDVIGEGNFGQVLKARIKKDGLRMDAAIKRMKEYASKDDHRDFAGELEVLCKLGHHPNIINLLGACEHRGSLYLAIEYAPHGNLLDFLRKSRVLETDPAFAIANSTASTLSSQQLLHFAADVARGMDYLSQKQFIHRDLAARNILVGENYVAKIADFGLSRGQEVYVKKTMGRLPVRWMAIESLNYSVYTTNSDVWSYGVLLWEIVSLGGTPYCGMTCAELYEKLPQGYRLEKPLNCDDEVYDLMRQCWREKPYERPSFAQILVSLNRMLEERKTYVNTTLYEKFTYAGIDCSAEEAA

With HRRIKAWLKKIKALARQLGVAA [MMI-0500], the “% activity” value in experiment [1] is given as 48%; in experiment [2], 31%; in [3] it was −1%; in experiment [4], 42%; in [5], 178%; in [6] it was 80%. Besides, the “% activity” value in experiment [7] came to 15%; in experiment [8] it was 42%.
Turning to YARAAARQARAKALNRQLGVA [MMI-0200], the “% activity” value came out at 98% in experiment [2]; 123% in experiment [4]; 143% in experiment [5]; 85% in experiment [6]; 93% in experiment [7]; 95% in experiment [8]. Further, the “% activity” value in experiment [9] is 72%.
Take KAFAKLAARLYRKALARQLGVAA [MMI-0400]: the “% activity” value was determined as 91% in experiment [1]; 3% in experiment [2]; 98% in experiment [3]; 24% in experiment [4]; 159% in [5]; 87% in experiment [6]. For the same sequence, the results for the “% activity” value in [7], in experiment [8] and in [9] were 74%, 82% and 74%, respectively.
Consider FAKLAARLYRKALARQLGVAA [MMI-0300], for which the “% activity” value in [1] worked out at 96%; in experiment [2] it was 69%; in experiment [3], 56%; in [4], 18%; in experiment [5] it was 135%; in [6], 83%. Further, the results for the “% activity” value in experiment [7], in experiment [8] and in experiment [9] were 70%, 81% and 74%, respectively.

Source of the values: patent US20190134153A1, “IMMUNOMODULATORY EFFECT OF INHALED KINASE INHIBITOR PEPTIDES IN LUNG” (MOERAE MATRIX, INC., priority 2017, published 2019).
